Results reported in US8435961B2, “Methods and compositions for increasing the activity of inhibitory RNA” (Massachusetts Institute of Technology, priority 2009, dated 2013).

Test system: RNAi activity in 293T cells
Assay: Modified pGL4.72[hRlucCP] vector luciferase assay of RNAi activity
Assay type: cell-based
Conditions: overexpression from pEGFP-C1, 10 nM vector-target RNAi, 48 hours, vs EGFP- and G3BP-overexpressing cells (FIG. 30)
Excerpt: Assays for measuring RNAi activity in a cell are available in the art. For example, psiCHECK™-1, psiCHECK™-2, and pGL4.72[hRlucCP]™ vector assay systems provide methods for the measurement of RNAi activity in a cell. In these assays systems, luciferase is used a primary reporter gene and a target sequence (i.e., the target of one or more RNAi molecules) is cloned a multiple cloning region located downstream of the luciferase translational stop codon. Initiation of the RNAi process towards the target gene results in the cleavage and subsequent degradation of the fusion mRNA encoded by the vectors (i.e., upon treatment of the transfected cell with a vector-target RNAi molecule). Measurement of decreased luciferase activity in the transfected cells following treatment with the vector-target RNAi indicates the activity of RNAi in the cell. […]
Additional experiments were performed to determine the effect of PARP13 knockdown on miRNA activity. […] In a second set of experiments, the ability of the vector-target RNAi to reduce the expression of luciferase was measured in 293T cells transfected with pGL4.72[hRlucCP]™ vector, 20 nM vector-target RNAi, and 20 nM of negative RNAi control for PARP13 siRNA (siNeg; AllStars Negative Control siRNA; Qiagen Catalog No. 1027280) or PARP13 siRNA (siPARP13; SEQ ID NO: 40) following treatment with 0 or 30 nM pateamine A for 2 hours. […]

B1: PARP13: PARP13 overexpressed from a pEGFP-C1 plasmid (protein)
chain: ADPEVCCFITKILCAHGGRMALDALLQEIALSEPQLCEVLQVAGPDRFVVLETGGEAGITRSVVATTRARVCRRKYCQRPCDNLHLCKLNLLGRCNYSQSERNLCKYSHEVLSEENFKVLKNHELSGLNKEELAVLLLQSDPFFMPEICKSYKGEGRQQICNQQPPCSRLHICDHFTRGNCRFPNCLRSHNLMDRKVLAIMREHGLNPDVVQNIQDICNSKHMQKNPPGPRAPSSHRRNMAYRARSKSRDRFFQGSQEFLASASASAERSCTPSPDQISHRASLEDAPVDDLTRKFTYLGSQDRARPPSGSSKATDLGGTSQAGTSQRFLENGSQEDLLHGNPGSTYLASNSTSAPNWKSLTSWTNDQGARRKTVFSPTLPAARSSLGSLQTPEAVTTRKGTGLLSSDYRIINGKSGTQDIQPGPLFNNNADGVATDITSTRSLNYKSTSSGHREISSPRIQDAGPASRDVQATGRIADDADPRVALVNDSLSDVTSTTSSRVDDHDSEEICLDHLCKGCPLNGSCSKVHFHLPYRWQMLIGKTWTDFEHMETIEKGYCNPGIHLCSVGSYTINFRVMSCDSFPIRRLSTPSSVTKPANSVFTTKWIWYWKNESGTWIQYGEEKDKRKNSNVDSSYLESLYQSCPRGVVPFQAGSRNYELSFQGMIQTNIASKTQKDVIRRPTFVPQWYVQQMKRGPDHQPAKTSSVSLTATFRPQEDFCFLSSKKYKLSEIHHLHPEYVRVSEHFKASMKNFKIEKIKKIENSELLDKFTWKKSQMKEEGKLLFYATSRAYVESICSNNFDSFLHETHENKYGKGIYFAKDAIYSHKNCPYDAKNVVMFVAQVLVGKFTEGNITYTSPPPQFDSCVDTRSNPSVFVIFQKDQVYPQYVIEYTEDKACVIS
  decrease in the level of miRNA-mediated repression compared to control cells: 3 fold
